Reference: article PMC8469155
Each block holds one substance with its values, some of them ahead of it.

Assays:
L19-TNF^WT (human) [1] = assay: SEC; Superdex 200 Increase 10/300 column, ÄKTA FPLC, protein dialysed into PBS pH 7.4; peak at 12 mL corresponds to the homotrimer
L19-TNF^Y119S (human) = assay: as above
L19-TNF^I97A (human) [2] = assay: SPR; BIAcore X100; EDB covalently immobilised on a CM5 chip (1500-2000 RU), L19-TNF protein captured on it through L19-EDB (340 RU); TNFR1 injected for 30 s in a 1:2 dilution series from 1000 nM; PBS pH 7.4; regeneration 10 mM HCl; independent chip for each protein; global fit, 1:1 Langmuir model
L19-TNF^WT (human) [3] = assay: as above
L19-TNF^Y59F (human) = assay: SEC; Superdex 200 Increase 10/300 column, ÄKTA FPLC, protein dialysed into PBS pH 7.4; peak at 12 mL corresponds to the homotrimer
[4] = biological target: alternatively spliced EDB domain of fibronectin (recombinant EDB protein)
L19-TNF^I97A (human) [5] = assay: SEC; Superdex 200 Increase 10/300 column, ÄKTA FPLC, protein dialysed into PBS pH 7.4; peak at 12 mL corresponds to the homotrimer
L19-TNF^Q102N (human) = assay: as above
[6] = biological target: tumor necrosis factor receptor 1 (TNFR-1) (UniProt P19438); assay: SPR; conditions: response read at end of injection (~50-55 s), L19-TNF mutein captured on EDB-coated CM5 chip, read off a plot
L19-TNF^S147A (human) = assay: SEC; Superdex 200 Increase 10/300 column, ÄKTA FPLC, protein dialysed into PBS pH 7.4; peak at 12 mL corresponds to the homotrimer

stoichiometry N (L19-TNF^WT (human) [1]): 3
Substance: L19-TNF^WT

stoichiometry N (L19-TNF^Y119S (human)): 3
Substance: L19-TNF^Y119S

fold faster dissociation rate against L19-TNF^WT (L19-TNF^I97A (human) [2]): 50 fold | Kd (L19-TNF^WT (human) [3]): 10 nM
Substance: tumor necrosis factor receptor 1 (TNFR-1) (from UniProt P19438 30-455)

stoichiometry N (L19-TNF^Y59F (human)): 3
Substance: L19-TNF^Y59F

stoichiometry N (L19-TNF^I97A (human) [5]): 3
Substance: L19-TNF^I97A
EC50 of cytotoxicity on A-375 cells (cell viability, with actinomycin D), 100 nM EDB Coating (M); without EDB coating 2.273 × 10^−9 M [4]: 2.25e-10 M

stoichiometry N (L19-TNF^Q102N (human)): 3
Substance: L19-TNF^Q102N

Substance: L19-TNF^WT Q102N
response ([6]; 125 nM TNFR1): 28 RU | response ([6]; 500 nM TNFR1): 45 RU | response ([6]; 1000 nM TNFR1): 45 RU

stoichiometry N (L19-TNF^S147A (human)): 3
Substance: L19-TNF^S147A
